Tests used:
LARP1 DM15 [1] = target: T1, LARP1 DM15 (Homo sapiens, UniProt Q6PKG0-3 796-946); experiment: EMSA; Competition assays: 20 mM Tris pH 8, 150 mM NaCl, 10% glycerol, 1 mM DTT, 0.5 ug BSA, 0.5 ug tRNA, 30 min on ice, native gel; EMSA as in Lahr et al. 2015 with RNA <=200 pM; settings: protein: recombinant
LARP1 DM15 [2] = target: T1, LARP1 DM15; experiment: crystal structure; Competition assays: 20 mM Tris pH 8, 150 mM NaCl, 10% glycerol, 1 mM DTT, 0.5 ug BSA, 0.5 ug tRNA, 30 min on ice, native gel; EMSA as in Lahr et al. 2015 with RNA <=200 pM; settings: protein: recombinant
eIF4E = eIF4E (Homo sapiens, UniProt P06730 1-217); experiment: competition; outcompetes DM15 as pre-bound or competitor protein; Competition assays: 20 mM Tris pH 8, 150 mM NaCl, 10% glycerol, 1 mM DTT, 0.5 ug BSA, 0.5 ug tRNA, 30 min on ice, native gel; EMSA as in Lahr et al. 2015 with RNA <=200 pM; settings: protein: recombinant; tags: His6-MBP removed by TEV; label: 32P in cap
eIF4E, sequence (P06730 whole entry): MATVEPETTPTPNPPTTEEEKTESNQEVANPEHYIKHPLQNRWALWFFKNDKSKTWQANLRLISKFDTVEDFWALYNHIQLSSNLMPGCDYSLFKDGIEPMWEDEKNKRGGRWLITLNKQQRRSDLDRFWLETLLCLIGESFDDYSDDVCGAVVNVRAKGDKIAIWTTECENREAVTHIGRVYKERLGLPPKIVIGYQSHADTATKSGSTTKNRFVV

CUCUCUUCCUCGGCGCUGCCUACGGAGGUGGCAGCCAUCUCC (ssRNA, 5' m7Gppp cap) [m7Gppp-RPL32 42mer]
binding result (LARP1 DM15 [1]; label: 32P in cap): binds

CCUCUUUUCCGUGGCGCCUCGGAGGCGUUCAGCUGCUUCAAG (ssRNA, 5' m7Gppp cap) [m7Gppp-RPS6 42mer (capped TOP)]
Kd (LARP1 DM15 [1]; label: 32P in cap): 21 nM

CUUUUCCG (ssRNA) [RPS6 8mer]
binding result (LARP1 DM15 [2]): binds

GCCUCUUUUCCGUGGCGCCUCGGAGGCGUUCAGCUGCUUCAAG (ssRNA) [G-RPS6 (uncapped non-TOP)]
Kd (LARP1 DM15 [1]; label: 5' 32P): 7500 nM

GCCUCUUUUCCGUGGCGCCUCGGAGGCGUUCAGCUGCUUCAAG (ssRNA, 5' m7Gppp cap) [m7Gppp-G-RPS6 (capped non-TOP)]
Kd (LARP1 DM15 [1]; label: 32P in cap): 2000 nM | binding result (eIF4E): binds

From publication PMC5419741, “La-related protein 1 (LARP1) binds the mRNA cap, blocking eIF4F assembly on TOP mRNAs”
